# Tested on: AncSZ
# Experiment: phosphorylation enrichment, bacterial display (enrichment ratio); higher = better substrate or ligand; peptides without Tyr show the background
# 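Note: 11-residue human phosphosite peptides and single-mutation variants displayed on the E. coli surface, counted by deep sequencing, each peptide's frequency after selection divided by its frequency in the unselected input library; frequency after pTyr selection over input frequency; kinase dosed for 20-30% of maximal phosphorylation in three min.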
row,Sequence,phosphorylation enrichment
1,TRNRDYDDIDD [TTYH2_Y424],1.02
2,AVAFVYYKSIG [ADGRL4_Y301],1.18
3,VRFTEYETQVK [TARDBP_Y155],0.791
4,VCDSNYSASRW [LRP5_Y1552_D1551N],0.719
5,FSVDSYDSSVR [KCNQ1_Y461_G460S],0.734
6,GYRPVYSEDEQ [CHST6_Y362],1.26
7,RGFRVCFTPDS [PTPRF_Y450_Y450C_YF],1.09
8,YLENYYDLKKD [MMP3_Y42],1.83
9,RGRSTYFWPRP [GAGE12J_Y9_YF],1.15
10,YHIDHYLGKEM [G6PD_Y202_R198H],0.599
11,YSKDNYKRVTG [PANK2_Y405],0.675
12,FFRRHYPLTTL [TNS4_Y644],0.995
13,LFQAKYQIRYR [CRLF1_Y272],1.07
14,FGLDHYQCDCT [PTGS1_Y54_R53H],0.956
15,IFGVSYDEYRY [CFTR_Y512],0.932
16,HLVSEYQQYQD [TUBB3_Y422_D417H],1.78
17,TTTQAYRVNER [PRKN_Y391_D394N],0.496

row,Sequence,phosphorylation enrichment
1,AEEEIYGIFGA [SRCtide_2014],2.1
2,GSTLSYFGLAA [P2RX7_Y343],0.725
3,RRIHSNRGHLW [VHL_Y112_Y112N],0.702
4,VSGIPYGQPKQ [NEU1_Y251],0.494
5,SELVCYDARVH [MET_Y971_R970C],1.07
6,EKLQQYIAPGM [EPHB3_Y600],0.589
7,QRPYVYYYSYL [PTEN_Y176_R173P],2.26
8,PIPIKYKAMKK [MYD88_Y257_L252P],0.677
9,FTGVEYSSCDT [EPHA3_Y937],1.12
10,KNNDGYIDFAE [MCFD2_Y135_YF],0.921
11,LGQRIYQYIRS [DYRK1B_Y271_Q275R],1.42
12,GDDLSYGDVPP [IRS1_Y151_E147D],1.11
13,ADKAAYLQSLN [MYH2_Y389],0.779
14,FETVKYINNER [ABCB7_Y345_F346I_YF],0.903
15,FSKRIYKGMVA [PCDH15_Y931],0.426
16,FIRRDYEACKA [BBS4_Y48_K46R_YF],0.761

# Tested on: c-Abl (mouse)
# Experiment: as above
row,Sequence,phosphorylation enrichment
1,TRNRDYDDIDD [TTYH2_Y424],0.621
2,AVAFVYYKSIG [ADGRL4_Y301],0.67
3,VRFTEYETQVK [TARDBP_Y155],0.629
4,VCDSNYSASRW [LRP5_Y1552_D1551N],0.507
5,FSVDSYDSSVR [KCNQ1_Y461_G460S],0.523
6,GYRPVYSEDEQ [CHST6_Y362],0.774
7,RGFRVCFTPDS [PTPRF_Y450_Y450C_YF],1.32
8,YLENYYDLKKD [MMP3_Y42],0.957
9,RGRSTYFWPRP [GAGE12J_Y9_YF],1.17
10,YHIDHYLGKEM [G6PD_Y202_R198H],0.58
11,YSKDNYKRVTG [PANK2_Y405],0.52
12,FFRRHYPLTTL [TNS4_Y644],0.587
13,LFQAKYQIRYR [CRLF1_Y272],0.779
14,FGLDHYQCDCT [PTGS1_Y54_R53H],0.61
15,IFGVSYDEYRY [CFTR_Y512],0.638
16,HLVSEYQQYQD [TUBB3_Y422_D417H],0.98
17,TTTQAYRVNER [PRKN_Y391_D394N],0.492

row,Sequence,phosphorylation enrichment
1,AEEEIYGIFGA [SRCtide_2014],3.69
2,GSTLSYFGLAA [P2RX7_Y343],0.525
3,RRIHSNRGHLW [VHL_Y112_Y112N],0.825
4,VSGIPYGQPKQ [NEU1_Y251],0.422
5,SELVCYDARVH [MET_Y971_R970C],0.721
6,EKLQQYIAPGM [EPHB3_Y600],0.582
7,QRPYVYYYSYL [PTEN_Y176_R173P],1.59
8,PIPIKYKAMKK [MYD88_Y257_L252P],0.642
9,FTGVEYSSCDT [EPHA3_Y937],0.755
10,KNNDGYIDFAE [MCFD2_Y135_YF],0.663
11,LGQRIYQYIRS [DYRK1B_Y271_Q275R],2.38
12,GDDLSYGDVPP [IRS1_Y151_E147D],0.751
13,ADKAAYLQSLN [MYH2_Y389],0.546
14,FETVKYINNER [ABCB7_Y345_F346I_YF],0.617
15,FSKRIYKGMVA [PCDH15_Y931],0.332
16,FIRRDYEACKA [BBS4_Y48_K46R_YF],0.549

# Target: EPHB1 (UniProt P54762)
# Sequence (P54762 whole entry, looked up): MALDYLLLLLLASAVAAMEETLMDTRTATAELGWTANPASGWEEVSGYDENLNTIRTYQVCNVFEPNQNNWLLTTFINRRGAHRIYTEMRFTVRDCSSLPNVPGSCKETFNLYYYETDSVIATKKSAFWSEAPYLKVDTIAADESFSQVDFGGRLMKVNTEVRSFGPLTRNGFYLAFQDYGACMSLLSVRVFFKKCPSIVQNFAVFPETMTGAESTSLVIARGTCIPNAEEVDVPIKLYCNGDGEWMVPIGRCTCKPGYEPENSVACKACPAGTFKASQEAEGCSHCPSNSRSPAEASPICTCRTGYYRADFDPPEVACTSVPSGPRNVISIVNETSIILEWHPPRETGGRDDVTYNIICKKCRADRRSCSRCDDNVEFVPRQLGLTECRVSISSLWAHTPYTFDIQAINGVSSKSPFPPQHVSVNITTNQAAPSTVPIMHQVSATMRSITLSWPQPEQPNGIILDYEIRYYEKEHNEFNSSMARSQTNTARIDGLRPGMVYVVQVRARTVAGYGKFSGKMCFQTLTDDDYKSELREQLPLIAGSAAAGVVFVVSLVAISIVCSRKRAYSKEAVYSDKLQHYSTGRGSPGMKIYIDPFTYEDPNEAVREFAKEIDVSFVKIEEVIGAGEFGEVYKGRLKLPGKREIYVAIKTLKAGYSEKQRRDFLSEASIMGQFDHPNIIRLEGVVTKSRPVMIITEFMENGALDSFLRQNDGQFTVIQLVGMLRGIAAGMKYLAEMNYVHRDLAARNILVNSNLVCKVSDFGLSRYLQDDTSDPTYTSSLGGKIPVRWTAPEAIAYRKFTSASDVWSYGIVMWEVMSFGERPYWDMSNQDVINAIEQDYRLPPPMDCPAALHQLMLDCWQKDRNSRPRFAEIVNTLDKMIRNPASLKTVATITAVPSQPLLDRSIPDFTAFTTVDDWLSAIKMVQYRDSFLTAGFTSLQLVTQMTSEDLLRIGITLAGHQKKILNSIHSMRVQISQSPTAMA
# Experiment: as above
row,Sequence,phosphorylation enrichment
1,TRNRDYDDIDD [TTYH2_Y424],0.497
2,AVAFVYYKSIG [ADGRL4_Y301],0.615
3,VRFTEYETQVK [TARDBP_Y155],0.53
4,VCDSNYSASRW [LRP5_Y1552_D1551N],1.62
5,FSVDSYDSSVR [KCNQ1_Y461_G460S],0.451
6,GYRPVYSEDEQ [CHST6_Y362],0.677
7,RGFRVCFTPDS [PTPRF_Y450_Y450C_YF],0.64
8,YLENYYDLKKD [MMP3_Y42],6.01
9,RGRSTYFWPRP [GAGE12J_Y9_YF],0.875
10,YHIDHYLGKEM [G6PD_Y202_R198H],0.437
11,YSKDNYKRVTG [PANK2_Y405],0.362
12,FFRRHYPLTTL [TNS4_Y644],0.408
13,LFQAKYQIRYR [CRLF1_Y272],0.79
14,FGLDHYQCDCT [PTGS1_Y54_R53H],0.401
15,IFGVSYDEYRY [CFTR_Y512],0.557
16,HLVSEYQQYQD [TUBB3_Y422_D417H],1.07
17,TTTQAYRVNER [PRKN_Y391_D394N],0.445

row,Sequence,phosphorylation enrichment
1,AEEEIYGIFGA [SRCtide_2014],1.36
2,GSTLSYFGLAA [P2RX7_Y343],0.483
3,RRIHSNRGHLW [VHL_Y112_Y112N],0.496
4,VSGIPYGQPKQ [NEU1_Y251],0.349
5,SELVCYDARVH [MET_Y971_R970C],0.592
6,EKLQQYIAPGM [EPHB3_Y600],0.401
7,QRPYVYYYSYL [PTEN_Y176_R173P],4.84
8,PIPIKYKAMKK [MYD88_Y257_L252P],0.407
9,FTGVEYSSCDT [EPHA3_Y937],0.629
10,KNNDGYIDFAE [MCFD2_Y135_YF],0.492
11,LGQRIYQYIRS [DYRK1B_Y271_Q275R],11.1
12,GDDLSYGDVPP [IRS1_Y151_E147D],0.543
13,ADKAAYLQSLN [MYH2_Y389],0.458
14,FETVKYINNER [ABCB7_Y345_F346I_YF],0.46
15,FSKRIYKGMVA [PCDH15_Y931],0.231
16,FIRRDYEACKA [BBS4_Y48_K46R_YF],0.514

# Target: Fyn (UniProt P06241)
# Sequence (P06241 whole entry, looked up): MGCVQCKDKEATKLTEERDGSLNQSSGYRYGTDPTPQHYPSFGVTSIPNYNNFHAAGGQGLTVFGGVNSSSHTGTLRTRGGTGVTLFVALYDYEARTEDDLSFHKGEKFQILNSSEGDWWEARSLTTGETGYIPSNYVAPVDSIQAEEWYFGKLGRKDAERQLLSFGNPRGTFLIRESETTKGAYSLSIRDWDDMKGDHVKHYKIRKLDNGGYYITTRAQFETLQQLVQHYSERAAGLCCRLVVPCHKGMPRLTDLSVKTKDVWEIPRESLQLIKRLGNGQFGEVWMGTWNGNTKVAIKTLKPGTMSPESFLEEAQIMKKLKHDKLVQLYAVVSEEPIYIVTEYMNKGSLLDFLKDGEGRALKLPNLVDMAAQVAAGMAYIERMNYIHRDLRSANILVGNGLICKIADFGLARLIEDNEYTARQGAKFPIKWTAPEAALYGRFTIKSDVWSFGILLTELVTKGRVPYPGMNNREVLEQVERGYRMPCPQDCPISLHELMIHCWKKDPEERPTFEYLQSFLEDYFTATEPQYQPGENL
# Experiment: as above
row,Sequence,phosphorylation enrichment
1,TRNRDYDDIDD [TTYH2_Y424],0.451
2,AVAFVYYKSIG [ADGRL4_Y301],0.458
3,VRFTEYETQVK [TARDBP_Y155],0.4
4,VCDSNYSASRW [LRP5_Y1552_D1551N],0.483
5,FSVDSYDSSVR [KCNQ1_Y461_G460S],0.474
6,GYRPVYSEDEQ [CHST6_Y362],0.61
7,RGFRVCFTPDS [PTPRF_Y450_Y450C_YF],0.521
8,YLENYYDLKKD [MMP3_Y42],3.76
9,RGRSTYFWPRP [GAGE12J_Y9_YF],0.641
10,YHIDHYLGKEM [G6PD_Y202_R198H],0.482
11,YSKDNYKRVTG [PANK2_Y405],0.387
12,FFRRHYPLTTL [TNS4_Y644],0.426
13,LFQAKYQIRYR [CRLF1_Y272],0.477
14,FGLDHYQCDCT [PTGS1_Y54_R53H],0.379
15,IFGVSYDEYRY [CFTR_Y512],0.644
16,HLVSEYQQYQD [TUBB3_Y422_D417H],0.652
17,TTTQAYRVNER [PRKN_Y391_D394N],0.324

row,Sequence,phosphorylation enrichment
1,AEEEIYGIFGA [SRCtide_2014],5.63
2,GSTLSYFGLAA [P2RX7_Y343],0.571
3,RRIHSNRGHLW [VHL_Y112_Y112N],0.574
4,VSGIPYGQPKQ [NEU1_Y251],0.339
5,SELVCYDARVH [MET_Y971_R970C],0.603
6,EKLQQYIAPGM [EPHB3_Y600],0.334
7,QRPYVYYYSYL [PTEN_Y176_R173P],3.38
8,PIPIKYKAMKK [MYD88_Y257_L252P],0.5
9,FTGVEYSSCDT [EPHA3_Y937],0.524
10,KNNDGYIDFAE [MCFD2_Y135_YF],0.406
11,LGQRIYQYIRS [DYRK1B_Y271_Q275R],1.65
12,GDDLSYGDVPP [IRS1_Y151_E147D],0.426
13,ADKAAYLQSLN [MYH2_Y389],0.536
14,FETVKYINNER [ABCB7_Y345_F346I_YF],0.452
15,FSKRIYKGMVA [PCDH15_Y931],0.392
16,FIRRDYEACKA [BBS4_Y48_K46R_YF],0.525
